Measured values: US20040219159, “Methods and compositions for therapeutic intervention in infectious disease” (published 2004)

Molecular target: T1, HspR (Rv0353) (Mycobacterium tuberculosis, UniProt O06302 O06302:1-126)
T1 sequence: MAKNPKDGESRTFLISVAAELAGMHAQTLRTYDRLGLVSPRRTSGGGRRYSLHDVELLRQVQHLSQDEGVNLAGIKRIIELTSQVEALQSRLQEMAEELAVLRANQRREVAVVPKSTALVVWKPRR
Test: EMSA
Details: tags: His-tag (pQE30, expressed in E. coli SG13009, renatured from urea); label: 32P; annealed 40-mers with short 5' overhangs

B1: HAIR2 oligonucleotide DNAKIR-F/DNAKIR-R (dsDNA)
DNA 1: GCTCAGTAAGTTGAGTGCATCAGGCTCAGCTCTGAATTGA
DNA 2: GTCAATTCAGAGCTGAGCCTGATGCACTCAACTTACTGAG
binding result: binds
